From patent US20100015637A1 (AbbVie / Abbott, published 2010)

Experiments:
[1] = target: human PlGF-1 comprising amino acids 1-137 produced in human embryonic kidney cells (human) (UniProt P49763); experiment: Format 2 …, capture MAb264, detection Pb264; sFlt-1 9200 pmol/L (ratio 300)
[2] = target: human PlGF-1 comprising amino acids 1-137 produced in human embryonic kidney cells (human) (UniProt P49763); experiment: Format 2 …, capture MAb264, detection Pb264; sFlt-1 153 pmol/L (ratio 5)
[3] = target: human PlGF-1 comprising amino acids 1-137 produced in human embryonic kidney cells (human) (UniProt P49763); experiment: Format 3 Quantikine ELISA, capture MAb264, detection Pb264; sFlt-1 0 pmol/L (ratio 0)
[4] = target: recombinant human PlGF-1 (comprising amino acids 1-131) expressed in E. coli (R&D Systems) (human) (UniProt P49763); experiment: SPR (BIAcore 2000); MAb captured on anti-mouse IgG chip, antigen in solution; 1:1 fit with mass transport
[5] = target: T1, CHO-sourced human PlGF-1 (comprising amino acids 1-131; ATCC PTA-8537) (human, UniProt P49763 19-221, glycosylated (CHO-expressed)); experiment: as above
T1 sequence: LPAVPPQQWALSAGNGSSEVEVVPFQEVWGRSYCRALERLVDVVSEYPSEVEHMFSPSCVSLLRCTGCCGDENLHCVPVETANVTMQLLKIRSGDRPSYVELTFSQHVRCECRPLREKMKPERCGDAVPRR
Protocol: (§1) First, a ˜5,500 RU rabbit anti-mouse IgG Capture Biosensor was created by amine-coupling rabbit anti-mouse IgG antibody (BIAcore® International AB, a GE Healthcare company, Uppsala, Sweden) to a CM4 biosensor chip (BIAcore® International AB, a GE Healthcare company, Uppsala, Sweden) via EDC/NHS/Ethanolamine chemistry provided in an Amine Coupling Kit (BIAcore® International AB, a GE Healthcare company, Uppsala, Sweden). Human PlGF-1 monoclonal antibodies and human PlGF-1 antigens were diluted into a running buffer (hereinafter “Running Buffer”) composed of HBS-EP buffer (BIAcore® International AB, a GE Healthcare company, Uppsala, Sweden) spiked with 0.1% BSA and 0.1% CM-Dextran.
(§2) After equilibrating the rabbit anti-mouse IgG Capture Biosensor for 5 minutes at 5 μL/minute with Running Buffer, 5 to 10 μL of human PlGF-1 monoclonal antibody was injected over individual flow cells with one flow cell being left blank as a reference flow cell. The flow cells were washed for 6 minutes at 50 μL/minute with Running Buffer before injecting 150 μL of human PlGF-1 or human PlGF-1 fragment antigen at a […] concentration across the biosensor, which was immediately followed by 15 minutes of Running Buffer. The biosensor was regenerated with one 30 μL injections of 10 mM Glycine pH 1.7 (BIAcore® International AB, a GE Healthcare company, Uppsala, Sweden) at a flow rate of 10 μL/minute.

[6] = target: T2, CHO human PlGF-1 fragment (comprising amino acids 17-131; ATCC PTA-8540) (human, UniProt P49763 35-221); experiment: as above
T2 sequence: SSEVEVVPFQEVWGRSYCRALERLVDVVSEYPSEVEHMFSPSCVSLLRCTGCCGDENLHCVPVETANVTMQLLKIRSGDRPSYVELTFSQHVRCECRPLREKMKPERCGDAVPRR
Protocol: as §1, §2

[7] = target: T3, human PlGF-1 fragment (comprising amino acids 17-131) produced in human embryonic kidney cells (human, UniProt P49763 35-221); experiment: … sandwich, capture MAb826, detection pAb264; antigen 0 pg/mL (blank)
T3 sequence: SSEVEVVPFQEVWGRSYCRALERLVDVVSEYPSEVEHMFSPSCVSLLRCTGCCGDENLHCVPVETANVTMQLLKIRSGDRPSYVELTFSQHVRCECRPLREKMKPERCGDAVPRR

[8] = target: T4, CHO human PlGF-1 comprising amino acids 1-137 (human PlGF-1-His (1-131), CHO 6305) (human, UniProt P49763 19-221, N-glycans at N21 (completely glycosylated) and N89 (partially glycosylated)); experiment: as above
T4 construct: Mature human PlGF-1 with 6xHis tag (137 amino acids); also called CHO (1-137)
T4 sequence: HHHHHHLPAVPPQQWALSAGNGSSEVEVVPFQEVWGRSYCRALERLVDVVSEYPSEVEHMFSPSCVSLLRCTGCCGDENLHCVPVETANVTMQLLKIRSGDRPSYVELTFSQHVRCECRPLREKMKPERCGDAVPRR

[9] = target: T5, human PlGF-1 comprising amino acids 1-137 produced in human embryonic kidney cells (human, UniProt P49763 19-221); experiment: as above
T5 construct: Mature human PlGF-1 with 6xHis tag; also called HEK (1-137); full length HEK human PlGF-1 (1-137)
T5 sequence: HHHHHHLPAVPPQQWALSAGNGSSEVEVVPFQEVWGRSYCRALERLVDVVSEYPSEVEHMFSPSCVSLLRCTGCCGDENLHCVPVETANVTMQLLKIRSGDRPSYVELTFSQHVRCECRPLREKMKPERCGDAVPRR

[10] = target: T2, CHO human PlGF-1 fragment (comprising …); experiment: as above
[11] = target: T4, CHO human PlGF-1 comprising amino acids …; experiment: … sandwich, capture MAb826, detection pAb264; antigen 15 pg/mL
[12] = target: T5, human PlGF-1 comprising amino acids …; experiment: as above
[13] = target: T2, CHO human PlGF-1 fragment (comprising …); experiment: as above

Kd [4] [nM] | koff [4] [s⁻¹] | kon [4] [M⁻¹ s⁻¹] | Kd [5] [nM] | koff [5] [s⁻¹] | kon [5] [M⁻¹ s⁻¹] | Kd [6] [nM] | koff [6] [s⁻¹] | kon [6] [M⁻¹ s⁻¹] | other results | Molecule
– | – | – | – | – | – | – | – | – | % Inhibition [1]: 97.5%; PlGF-1 Measured [1]: 20 pg/mL; % Inhibition [2]: 64.9%; PlGF-1 Measured [2]: 276 pg/mL; % Inhibition [3]: 0%; PlGF-1 Measured [3]: 865 pg/mL | native sFlt-1, isolated from human placental tissue (from UniProt P17948 27-687) (receptor)
0.368 | 0.000121 | 329000 | 1.7 | 0.000123 | 73000 | 0.71 | 0.000129 | 182000 | – | monoclonal antibody 1-255-713 (produced by murine hybridoma cell line 1-255-713, ATCC PTA-8536) (antibody, mouse IgG2a, V domains shown, also called MAb255) VH: QVHLQQSGAELMKPGASVKISCKATGYTFSSYWIEWVKQRPGHGLEWIGEILPGSVSNNFNEKFKDKATLTADPSSNTAYIQVSSLTSEDSAVYYCARSTGFYYGGNYFDHWGQGTTLAVSS VL: DVVMTQTPLSLPVSPGDQASISCRSSQSLVHSNGHTYLHWYLQKPGQSPKLLIYKVSNRFSGVPDRVSGSGSGTDFTLKISRVEAEDLGVYFCSQSTHVPPTFGGGTKLEIKR
0.092 | 0.000214 | 2.34e+06 | 0.498 | 0.000325 | 652000 | 0.219 | 0.000291 | 1.33e+06 | RLU [7]: 6590 RLU; RLU [8]: 6600 RLU; RLU [9]: 6530 RLU; RLU [10]: 6680 RLU; RLU [11]: 10100 RLU; RLU [12]: 15500 RLU; RLU [13]: 11200 RLU | monoclonal antibody 2-826-335 (produced by murine hybridoma cell line 2-826-335, ATCC PTA-8539) (antibody, mouse IgG1, V domains shown, also called MAb826) VH: QVQLKQSGPGLVQPSQSLSITCTVSGFSLTTYGIHWVRQSPGKGLEWLGVMWSGGDTDYDAAFISRLSISKDNSKSQVFFKMNSLQANDTGIYYCARYRFYGMDYWGQGTSVTVSS VL: AIQMTQSSSSFSVSLGDRVTITCKASEDIYNRFAWYQQKPGNAPRLLISGAASLEAGVPSRFSGSGSGQDYTLSITSLQTEDVATYYCQQYWSTPWTFGGGTKLEIKR
